# Measured values: the RNAGym collection of RNA variant scans (doi:10.1021/acssynbio.7b00057)
# B1: Pistol ribozyme (parent)
# chain: GGGUCGUUGUUCCAUAAUCGCGUGGAUAUGGCACGCAAGUUUCUACCGGGCACCGUAAAUGUCCGACUGGAGCCGUUCGGGCGGCUAUAAACAGACCUCAGGCCCGAAGCGUGGCGGCACCUGCCGCCGGUGGUAAAAAAGAUCGGAAGAGCACACGUCU
# Variants of: B1
# Test: aptazyme ON/OFF ratio, guanine; higher = stronger switching; co-transcriptional cleavage with and without guanine
row,Variant,aptazyme ON/OFF ratio
1,U7A U8A U10G U11G C12G C13A,1.07
2,U7A U8C G9A U10C,2.35
3,U7A U8C G9A U10A,1.37
4,U7A U8A U11G C12A C13U,1.46
5,U7A U8A U11G C12A C13G,1.11
6,U7A U8A U11G C12A C13A,1.15
7,U7A U8A U11A,1.22
8,U7A U8A U11C,1.38
9,U7A U8A U11G,1.25
10,U7A U8C G9A U10A U11G C12U C13G,1.24
11,U7A U8C G9A U10A U11G C12U C13U,1.31
12,U7A U8C G9A U10A U11G C12U C13A,1.2
13,U7A U8A U11G C12G,1.27
14,U7A U8A U11G C12U,1.27
15,U7A U8A U11G C12A,1.13
16,U7A U8C G9A C12A C13G,1.14
17,U7A U8C G9A C12A C13A,1.18
18,U7A U8C G9A C12A C13U,1.16
19,U7A U8A U10G U11G C12U C13A,1.23
20,U7A U8A U10G U11G C12U C13U,1.27
21,U7A U8A U10G U11G C12U C13G,1.26

row,Variant,aptazyme ON/OFF ratio
1,U7A U8C G9A C12G C13A,1.13
2,U7A U8C G9A C12G C13U,1.2
3,U7A U8C G9A C12G C13G,1.12
4,U7A U8A U11C C12G C13A,1.25
5,U7A U8A U11C C12G C13G,1.24
6,U7A U8A U11C C12G C13U,1.46
7,U7A U8C C13G,1.16
8,U7A U8C C13U,1.51
9,U7A U8C C13A,1.26
10,U7A U8A U11A C13G,1.09
11,U7A U8A U11A C13A,1.11
12,U7A U8A U11A C13U,1.11
13,U7A U8C G9A U10A U11C C12G C13U,1.2
14,U7A U8C G9A U10A U11C C12G C13A,1.09
15,U7A U8C G9A U10A U11C C12G C13G,1.17
16,U7A U8C G9A U10A C12G C13G,1.25
17,U7A U8C G9A U10A C12G C13U,1.28
18,U7A U8C G9A U10A C12G C13A,1.14
19,U7A U8A U11G C12G C13G,1.24
20,U7A U8A U11G C12G C13A,1.1
21,U7A U8A U11G C12G C13U,1.46

row,Variant,aptazyme ON/OFF ratio
1,U7A U8C G9A U10A U11C C12U C13A,1.12
2,U7A U8C G9A U10A U11C C12U C13U,1.05
3,U7A U8C G9A U10A U11C C12U C13G,1.15
4,U7A U8A U11C C12U,1.48
5,U7A U8A U11C C12A,1.36
6,U7A U8A U11C C12G,1.17
7,U7A U8A U10G U11G C12A C13U,1.34
8,U7A U8A U10G U11G C12A C13G,1.16
9,U7A U8A U10G U11G C12A C13A,1.21
10,U7A U8C G9A U10A U11A C12G C13G,1.13
11,U7A U8C G9A U10A U11A C12G C13A,1.11
12,U7A U8C G9A U10A U11A C12G C13U,1.21
13,U7A U8C G9A U10A C12U,1.17
14,U7A U8C G9A U10A C12A,1.26
15,U7A U8C G9A U10A C12G,1.24
16,U7A U8A U10G U11C C13U,1.04
17,U7A U8A U10G U11C C13G,1.11
18,U7A U8A U11A C12G,1.2
19,U7A U8A U11A C12A,1.44
20,U7A U8A U11A C12U,1.31
21,U7A U8C G9A C12G,1.43

row,Variant,aptazyme ON/OFF ratio
1,U7A U8C G9A C12U,1.21
2,U7A U8C G9A C12A,1.22
3,U7A U8C G9A U10A C12U C13A,1.11
4,U7A U8C G9A U10A C12U C13U,1.12
5,U7A U8C G9A U10A C12U C13G,1.2
6,U7A U8C C12A C13U,1.24
7,U7A U8C C12A C13A,1.28
8,U7A U8C C12A C13G,1.11
9,U7A U8C G9A C12U C13U,1.1
10,U7A U8C G9A C12U C13G,1.09
11,U7A U8C G9A C12U C13A,1.07
12,U7A U8C C12U C13A,1.3
13,U7A U8C C12U C13G,1.27
14,U7A U8C C12U C13U,1.27
15,U7A U8C G9A U10C C12A,1.21
16,U7A U8C G9A U10A U11A C12U C13G,1.11
17,U7A U8C G9A U10A U11A C12U C13A,1.13
18,U7A U8C G9A U10A U11A C12U C13U,1.3
19,U7A U8A U11A C12U C13U,1.25
20,U7A U8A U11A C12U C13G,1.28
21,U7A U8A U11A C12U C13A,1.29
